From the supplement of paper PMC10126150
± gives the standard deviation of the averaged measurements.

Test system: ATP
Assay: switch fluorescence ratio, 500 uM ATP over buffer (Cy3 cluster intensity, sum of 5 cycles each) (fold (ratio)); higher = stronger signal-on switching upon ATP binding; sequences stand for … in TCGTCGGCAGCGTCAGATGTGTATAAGAGACAGTTTTTTTTTTTTTTTTTTTTTTTTT…TC
Settings: aptamer strand: ATP DNA aptamer (quencher-CACCTGGGGGAGTATTGCGGAGGAAGG + anchor), 100 nM annealed; ATP concentration: 500 uM
Procedure, shortened: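 Clusters carrying Cy3-labelled switching strands on a modified Illumina MiSeq flow-cell were annealed to 100 nM quencher-labelled ATP aptamer and imaged in selection buffer. They were imaged again after 15 min with 500 uM ATP at 22 °C, over five buffer/ATP cycles with NaOH stripping and re-annealing in between. For each cluster, the fluorescence ratio is the summed Cy3 intensity of the target cycles divided by that of the buffer cycles, averaged per switch-domain sequence. Clusters outside 100-1000 RFU were left out.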
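Also: ATP exposure 15 min at 22 °C before imaging.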

Sequence | switch fluorescence ratio
GGGGCCCGAA | 0.981 ± 0.035
GTGGGGTTGG | 0.981 ± 0.021
AGGTTCATCT | 1.011 ± 0.0057
GATGGACTTT | 1.03 ± 0.013
CCGGGGGCTT | 1.22 ± 0.019
CACTTTCACA | 1.17 ± 0.055
ACCCAGCGCT | 1.04 ± 0.023
TGTGTGGCGT | 1.003 ± 0.0042
GATTTTGGTG | 0.971 ± 0.023
TTACTCTTCT | 0.972 ± 0.04
GACGTCAGGG | 0.997 ± 0.052
CTGGTTTTAT | 0.9823 ± 0.009
GCCGGATTGA | 1.02 ± 0.041
TACGTGCATA | 1.122 ± 0.0033
GACTAGGGGT | 1.005 ± 0.0078
GCTTTTAGGA | 1 ± 0.038
TGTAGGGTCA | 0.9819 ± 0.0023
GTTCAGTTTG | 1.03 ± 0.031
ATTCGTCTAG | 0.989 ± 0.012
GACTGTCGG | 1.002 ± 0.0068
GAGTTGCTTA | 1.006 ± 0.01
AGTAGAGAAT | 1.04 ± 0.017
AGAGTGGGGT | 0.962 ± 0.033

Sequence | switch fluorescence ratio
AGCGAAAGGA | 1.01 ± 0.023
CAGGGGCAAT | 2.7 ± 0.12
GCATTGAAGC | 0.995 ± 0.011
GTAATAGGAG | 1.02 ± 0.039
TGGCTCTGGG | 1.04 ± 0.033
GCGGGGTCGG | 1.0083 ± 0.00048
GTTAAAAACA | 1.03 ± 0.052
CTGAGCTGCA | 1.12 ± 0.036
CCGAGGGTTA | 1.34 ± 0.12
TTATTGATCT | 1 ± 0.065
GATAGTAATG | 1.01 ± 0.018
AAAAGTTGTA | 1.01 ± 0.027
AGTACGGTGG | 0.985 ± 0.064
ATGGTCTGCC | 0.974 ± 0.02
TGTGATTGGG | 0.988 ± 0.017
CTGATGAGTT | 0.982 ± 0.019
ATAGTGCTTG | 0.988 ± 0.046
GGTTTGTTTG | 0.999 ± 0.025
CGTCGACCGG | 1 ± 0.022
TAAAGTGTTG | 1.02 ± 0.024
TGGGCAGGCA | 1 ± 0.028
AAAGTTAATG | 1.009 ± 0.0074
AATTTTTAAC | 1 ± 0.028

Sequence | switch fluorescence ratio
TCTAAGGATT | 1.02 ± 0.022
TCATTTTTTT | 0.997 ± 0.036
GGCCTATGTC | 1.04 ± 0.011
GAACGGTGTG | 0.996 ± 0.0057
ATATTCTTCC | 1.96 ± 0.18
CAGATAGGGG | 1.12 ± 0.19
TATGTTAGAT | 1.002 ± 0.01
GGGAGGTATA | 0.969 ± 0.012
CTGAGGGCG | 1.045 ± 0.0058
TTGACCGATT | 0.978 ± 0.041
CATATATCAT | 1.008 ± 0.0095
TTTAATACGT | 1.023 ± 0.0034
CAATTCGCGA | 1.2 ± 0.034
ATCGGAATAA | 1.4 ± 0.025
AGAAAGTGGT | 0.992 ± 0.017
TATGCGAGAC | 2.3 ± 0.15
CCTTTATGGT | 0.983 ± 0.011
AAATGTCTTG | 0.955 ± 0.043
TATTATCTGC | 0.971 ± 0.021
TTCTCGCTGG | 1 ± 0.041
CGAGCTTATA | 1.38 ± 0.032
TCCATTAGGA | 0.9978 ± 0.0082
TATGGGCATT | 0.998 ± 0.016

Sequence | switch fluorescence ratio
TTAAAAATCA | 0.984 ± 0.025
GATCGTAATT | 1.06 ± 0.0044
AAACTTGCCC | 1.09 ± 0.012
TTGGGACGAC | 1.022 ± 0.0084
ATTTAGTTTT | 0.976 ± 0.013
CTGGTTTTTT | 0.99 ± 0.01
CCCATGGACT | 1.034 ± 0.0088
AAATCTGAAG | 0.9798 ± 0.0027
AGGATGAATA | 0.9974 ± 0.0019
TTTATTTGTC | 0.992 ± 0.053
GATAATGAAC | 1.02 ± 0.02
GGGTTTTCTT | 0.961 ± 0.031
CCTAGCGCGC | 1.09 ± 0.043
ATTGACATAT | 1.054 ± 0.0046
ATAAGGCATG | 0.975 ± 0.021
GAATTTGTTA | 1.026 ± 0.0059
GTTTTAACTT | 0.999 ± 0.054
ATTGGCAAAA | 1.01 ± 0.035
CTTCTTAAGA | 0.984 ± 0.046
TCGGGGAGAA | 0.992 ± 0.073
CGGGTAAGT | 1 ± 0.022
GGAGAAAGCG | 0.976 ± 0.016
TCTTTTTGGT | 0.992 ± 0.018

Sequence | switch fluorescence ratio
TTGCGTGGGG | 1.005 ± 0.0065
TTCTATTGTT | 0.999 ± 0.017
GGGTTTTTCG | 0.994 ± 0.062
TTTCTTCCAT | 1.05 ± 0.1
CGGTTGTAGG | 0.999 ± 0.015
TTTTTATGGT | 0.984 ± 0.027
GGGGGTACGA | 1.01 ± 0.052
TTGGTAGTGC | 0.973 ± 0.015
TTGTGTTGGG | 1.01 ± 0.034
GGGGTTCCTT | 1 ± 0.034
TTTAAAACCA | 1.004 ± 0.0039
AGAAGGTGGG | 1.01 ± 0.021
CTTTCTAGCG | 0.995 ± 0.032
ATTTAACCCG | 1.02 ± 0.044
ATATGTGGAA | 1.015 ± 0.01
ACGACCTGCA | 1.51 ± 0.075
TTACGGTTTT | 1.01 ± 0.023
AAGTTAAGCC | 1.01 ± 0.047
CTTGTATTGG | 1.03 ± 0.072
TTACGCGAAA | 2.57 ± 2.1
ACTTGTAGCT | 1.02 ± 0.011
GTAGGGGATC | 1.04 ± 0.058
TAATTTGTGG | 0.995 ± 0.023

Sequence | switch fluorescence ratio
GATCAGATGT | 0.958 ± 0.048
TATGGCCTGG | 1.04 ± 0.015
AGAGGTTAAG | 1.03 ± 0.08
TTGGCTTAGT | 0.991 ± 0.034
GACGGTGGCT | 1.01 ± 0.023
AGGGGCGGGC | 0.884 ± 0.13
TCGACGGGAT | 2.42 ± 0.31
AGGTATGCGT | 0.985 ± 0.041
ATTACAATAG | 1.095 ± 0.0077
GTTGCGGGGT | 1.02 ± 0.029
TTGGGTCTTC | 0.9736 ± 0.0014
CCGGAGAGTT | 1.58 ± 0.11
CAAATCAGTG | 1.002 ± 0.01
GACCCTATTC | 1.09 ± 0.05
TTATTTAGTT | 1.01 ± 0.017
TGACAGTATC | 1.08 ± 0.011
CATGGTTGGT | 0.969 ± 0.025
AATAATGCAA | 1.07 ± 0.022
AACAGACCTT | 1.13 ± 0.12
AGATGGGGGT | 1.016 ± 0.0053
GGGTTTTACT | 0.991 ± 0.053
TGGATTTTTG | 0.9666 ± 0.0042
GGCTGAACGT | 1 ± 0.012

Sequence | switch fluorescence ratio
TCAGTTTAGC | 1.01 ± 0.016
GAGGGGGGTG | 1 ± 0.028
TTTCCAGGCA | 1.03 ± 0.0051
ACGTGTTCAT | 0.983 ± 0.018
CAAGATTGTG | 1.01 ± 0.017
AGGCGGGTGA | 1.02 ± 0.013
GAGATTAATT | 0.967 ± 0.016
ATATAATTTT | 0.979 ± 0.031
TATCACTGTT | 1.05 ± 0.079
TTTGGAATTT | 1.06 ± 0.1
TTATAAAACC | 1.02 ± 0.028
TTGGGGTCGG | 0.999 ± 0.037
AATTTGATGG | 0.995 ± 0.013
AATGGCGCGA | 1.02 ± 0.054
CTGGGGGCTC | 1.01 ± 0.018
CAGTATGTTT | 0.974 ± 0.044
GCTGTGGATG | 1.02 ± 0.024
GAATATTTTT | 1.02 ± 0.034
GGTTTAGTTG | 0.9744 ± 0.0062
